Source: the nanobody polyreactivity screen of Harvey et al. (2022)

Assay: yeast display, Sf9 membrane polyspecificity reagent, FACS + sequencing; frameworks hold sequencing errors
How it was run: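 In a synthetic yeast display library (Saccharomyces cerevisiae BJ5465), nanobody expression was induced with galactose for 36–48 hours. FACS gates were set low and high (top ~1%) using anti-HA fluorescence for expression and streptavidin fluorescence for binding of the Sf9 membrane reagent. Each polyreactivity label is drawn from the gate of origin.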

| Sequence | polyreactivity (PSR sort gate) |
| --- | --- |
| QVQLVESGGGLVQAGGSLRLSCAASGSTYAYDMGSYRQAPGKERELVAAISWDGGDTYYADSVKGRFTISRDNAKNTVYLQMNSLKPEDTAVYYCNTVFQRSGYAAGVDYWGQGTQVTVSS | high polyreactivity |
| QVQLVESGGGLVQAGGSLRLSCAASGSTYDIYAMGWYRQAPGKEREKVAAISWSGGSTHYADSVKGRFTISRDNAKNTVFFQMNSLKPEDTAVYYCAAVGRLWSLWRTKSYNYWGQGTEVTVSS | low polyreactivity |
| QVQLVESGGGLVQAGGSLRLSCAASGSTYDNNRMGWYRQATGKERELVASITFNVGSTYYADSVKGRFTISRDNAKNTVYLQMNSLKPEETAVYYCAADDLNLSQALGYDYWGQGTQVTVSS | low polyreactivity |
| QVQLVESGGGLVQAGGSLRLSCAASGSTYHYAMGWYRQAPGKERELVASITWRGDTTYYADSVKGRFTISRDNAKNTVYLQMNSLKPEDTAVYYGATVPYSPPSAGPEYDYWGQGTQVTVSS | high polyreactivity |
| QVQLVESGGGLVQAGGSLRLSCAASGSTYNNAMGWYRQAPGKERELVAAIRWSGGSTYYADSVKGRFTISRDNAKNTVYLQMNSLKPEDTAVYYCAARYRWSRKRYNDYDYWGQGTQVTVSS | high polyreactivity |
| QVQLVESGGGLVQAGGSLRLSCAASGSTYNVNAMGWARQAPGKERELVAAITSSGGSSNYADSVKGRFTISRDNAKNTVYLQMNSLKPEDTAVYYCAADAIFFSRLNLGYDYWGQGTQVTVSS | low polyreactivity |
| QVQLVESGGGLVQAGGSLRLSCAASGSTYRNAMGWYRQAPGKERELVAAITKSDSSTYYADSVKGRFTISRDNAKNTVYLQMYSLKPEDTAVYYCNVDRAWPPWPYDYWGQGTQVTVSS | low polyreactivity |
| QVQLVESGGGLVQAGGSLRLSCAASGSTYRYTMGWYRQAPGKERELVAAITGSAGRTYYADSVKGRFTISRDNAKNTVYLQMNSLKPEDTAVYYCNKDRPRKFWDYYYWGQGTQVTVSS | high polyreactivity |
| QVQLVESGGGLVQAGGSLRLSCAASGSTYTYALGWSRQAPGKERELVADITQSGGSTYYADSVKGRFTISRDNAKNTVYLQMNSLKTEDTAVYYCNAESRHVFEDEYWGQGTQVTGSS | low polyreactivity |
| QVQLVESGGGLVQAGGSLRLSCAASGSTYVGYAMGWYRQAPRKERDLVADIDSIGGSTYYADTVKRRFTISRDKAKNTVYLQMNSLKPEDTAVYYCAARRFDTALVLYDYWGQCTQVTVSS | low polyreactivity |
| QVQLVESGGGLVQAGGSLRLSCAASGSTYVGYTLGWYRQAPGKERELVAAITRRSGSTYYADSVKGRFTISRDNAKNTVYVQMNSLKPEDTAVYYCAKDFSRYSRFGHTEHDYWGQGTQVTVSS | high polyreactivity |
| QVQLVESGGGLVQAGGSLRLSCAASGSTYYENTMGWYRQAPGKEREMVAAISFRGGSTYYADSVKGRFTISRDNAKNTVYLQMNSLKPDDTAVYYCAKEYYTVRLYDYWGQGTQGTVSS | low polyreactivity |
| QVQLVESGGGLVQAGGSLRLSCAASGSTYYLYAMGWYRQAPGKESEFVARISASGGNTYYADSVKGRFTISRDNAKNTVYLQMNRLIPEDTAVFYCAARVRGRNASDYDYYYWGQGTQVTVSS | high polyreactivity |
| QVQLVESGGGLVQAGGSLRLSCAASGSTYYNAMGWYIQAPGKERELVAAIRFRSGSTYYADSVKGRFTISRDNAKNTVYLQMNSMKPVDTAVYYCAADNKRSWRYAYNYWGQGTQVTVSS | high polyreactivity |
| QVQLVESGGGLVQAGGSLRLSCAASGSTYYNTMGWYRQAPGKEREFVAAITWSTGTTYYADSVKGRFTISRDNAKNTVYLQMNSLKPEDTAVYYCATDDSRDWLNYWGQGTQVTVSS | low polyreactivity |
| QVQLVESGGGLVQAGGSLRLSCAASGSTYYQYVMGWYRQAPGKEMELVAAISGSGGSTYYADSVKGRFTISRDNAKNTVYLQMNSLKPEDTAVYYCAARLRGRGRPPFGYWGQGTQLTVSS | high polyreactivity |
| QVQLVESGGGLVQAGGSLRLSCAASGSTYYTNAMGWYRQAPGKERELVATITSSGGITSYADSVKGRFTISRDNAKNTVYLQMNSVKPEDTAVYYCAADFGSSYDTHEYGYWGQGTQVTVSS | low polyreactivity |
| QVQLVESGGGLVQAGGSLRLSCAASGSTYYYNAMGWYRQAPGKERELVARISRSGGSTYADSVKGRFSISRDNAKNTVYLQMNSLKPEDTAVYYCNAYAYGTPEFTSYAVRYDYWGQGTQVTVSS | low polyreactivity |
| QVQLVESGGGLVQAGGSLRLSCAASGSYFTYNRMGRYRQAPGKEREFVAANTWTGGSTYADSVKGRFTISRDNAKYTVYLQMNSLKPEDTAVYYCAAVRRFSWYTPVTTRRYYYWGQGTQVTVSS | high polyreactivity |
| QVQLVESGGGLVQAGGSLRLSCAASGTFAFYTMGWYRQAPGKERELVAAISWDGGDTYYADSVKGRFTISRDNAKNTVYLQMNSLKPEDTAVYYCAADYSNSGYGYWGQGTQVTVSS | low polyreactivity |
| QVQLVESGGGLVQAGGSLRLSCAASGTFAGNAMGCYRQSPGKERELVASITTGGRTYYADSVKGRFTISRDNAKNTVYLQMNSLKPEDTAVFYCSADLIRELEFDYWGQGTQVTVSS | low polyreactivity |
| QVQLVESGGGLVQAGGSLRLSCAASGTFAIYAMGWYRQAPGKERELVAAIRWRGGRTYYADSVKGRFTISRDNAKNTVYFQMNSLKPEDTAVYYCAAEVPYYWWSPYRVDVGYWGQGTQVTVSS | high polyreactivity |

| Sequence | polyreactivity (PSR sort gate) |
| --- | --- |
| QVQLVESGGGLVQAGGSLRLSCAASGTFDAYAMGWYRQAPGKERELVASISSSGGSTYYADSVKGRFTISRDNAKNTVYLQMNSLKPEDTAVYYCAATDFWYSGYYWGQGTQVTVSS | low polyreactivity |
| QVQLVESGGGLVQAGGSLRLSCAASGTFDTYSMGWNRQAPGKERELVADISSVGSTYYADSVKWRFTISRDNAKNTVYLQMNSLKPEDTAVYYCAATYPYPYYYIEYYYWGQGTQVTVSS | low polyreactivity |
| QVQLVESGGGLVQAGGSLRLSCAASGTFGGYAMGWYRQAPGKEREFVAAIDYGGGSTYYADSVKGRFTMSRDNAKNTVYLQMNSLKPEDTAVYYCAAEHWGYTYDQDFSTWATIYEYWGQGTQVTVSS | high polyreactivity |
| QVQLVESGGGLVQAGGSLRLSCAASGTFKYYAMGWYIQAPGEERELVAAISRGGRTNYADSVKGRFTISRDNAKNTVYLQMTSLKPEDTAVYYCAARKADTVFKFEYWGQGTQVTVSS | high polyreactivity |
| QVQLVESGGGLVQAGGSLRLSCAASGTFRRYPMGWYRQEPGKERELVAAITSSGGTYYADSVKGRFTISRDNAKHTVYLQMNSLKPEDTALYYCAARDYWSRYFRPGIVGWHDYWGQGTQVTVSS | high polyreactivity |
| QVQLVESGGGLVQAGGSLRLSCAASGTFVTYMGLYRQAPGKERELVAAIRNGGSTNYADSVKGRFTISRDNAKNTVYLQMNSLKPEDTAVDYFTADYTYWNGWFATRDYWGQGTQVTVSS | low polyreactivity |
| QVQLVESGGGLVQAGGSLRLSCAASGTFWLYTMGWYRQAPGKERELVAAISLTAGNTYYADSVKGRFTISRDNAKNTVYLQMNSLKPEDTAVYYCAADHYYYTRYEYWGQGTQVTVSS | low polyreactivity |
| QVQLVESGGGLVQAGGSLRLSCAASGTFYRNAMGWYRQAPGKERELVAAISSGSNTDYADSVKGRFTISRDNAKNTVYLQMNSLKPEDTAVYYCAADSLARRYDYWGQGTQVTVSS | low polyreactivity |
| QVQLVESGGGLVQAGGSLRLSCAASGTIFASYAMGWYRQAPGKERELVAAISDGGGRTYYADSVKGRFTISRDNAKNTVYLQMNSLKPEDTAVYYCAAYAVYTYRRARGYWGQGTQVTVSS | high polyreactivity |
| QVQLVESGGGLVQAGGSLRLSCAASGTIFGYYAMGWDREAPGKERELVAAITVSGSRTYYADSVKGRFTISRDKAKNTVYLQMNCLKPEATAVYYCAARYVSRYWAGRYPTRQRDSWGQGTQVTVSS | high polyreactivity |
| QVQLVESGGGLVQAGGSLRLSCAASGTIFGYYAMGWYRQAPGKERELVAAITSDGDTYYADSVKGRFTISRDNAKNTVYLQMNSLIPEDTAVYYCNATYGGPYYIQYDYWGQGTQVTVSS | low polyreactivity |
| QVQLVESGGGLVQAGGSLRLSCAASGTIFLVYAMGWYRQAPGKERELVAAITFSGGDTYADSVKGRFTISRDNAKNTVYLQMNSLKPEDTAVYYCNAPWPFYGSVVGQDFDYWGQGTQVTVSS | low polyreactivity |
| QVQLVESGGGLVQAGGSLRLSCAASGTIFNEYAMGWYRQAPGKERELVAAISTSGDITYYADSVKGRFTISRDNAKNTVYLQMNSLKPEDTAVYYCAAKYSLLRQYNRLDYWGQGTQVTVSS | low polyreactivity |
| QVQLVESGGGLVQAGGSLRLSCAASGTIFPTYAMGWYRQAPGKERELVAAISSIVGGTYYAHSVKGRFTISRDNAKNTVYLQMNSLKPEVTAVYYCAAPEDKYQHCIYGAYGVDYWGQGTQVTVSS | low polyreactivity |
| QVQLVESGGGLVQAGGSLRLSCAASGTIFVGYAMGWYRQAPGKERELVAAISWSGGRTYYADSVKGRFTISRDNAKNTVYLQMNSLKPEDTAVYYCAAPRYGGWRSYQKYDYWGQGTQVTVSS | high polyreactivity |
| QVQLVESGGGLVQAGGSLRLSCAASGTIFVNNAMGWYRQAPGKERELVAAIRRSGGNTYYADSVKGRFTISRDNAKNTVYLQMNSLKPEDTAVYYCNVVRRADSIRAKSRDYWGQGTQVTVSS | high polyreactivity |
| QVQLVESGGGLVQAGGSLRLSCAASGTILSFNAMAWYRQAPGKERELVAAMSRGGSTNYADSVKGRFTISRDNEKNTVYLQMNCLIPEDTAVYYCAALRPYGKEDVSDGGMDYWGQGTQVTVSS | high polyreactivity |
| QVQLVESGGGLVQAGGSLRLSCAASGTIYDGYAMGWYRQAPGKERELVAAINTSGGTTYYADSENGRFTISRDKAKNNGYLQMNSLKPEETAVYYCNAHNHLPPYDYWGQGSQVTVSS | low polyreactivity |
| QVQLVESGGGLVQAGGSLRLSCAASGTMGWYRQAPGKERELVAANSSSDRTSYADSVKGRFTISRDNAKNTVYLQMNSLKPEDTAVYYCNASTVFAWRTSTLKLFYTAHDYWGQGTQVTVSS | low polyreactivity |
| QVQLVESGGGLVQAGGSLRLSCAASGTTFAGYAMGWYRPEPGKERELVSAISSGDSTNYADSVKGRFTISRDNAKNTVYLQMNSLKPEDTAVYYCNAEYRTRVFWWAASSYDYWGQGTQVTVSS | low polyreactivity |
| QVQLVESGGGLVQAGGSLRLSCAASGTTFGAYAMGWYRQARGKERELVAVITWNDGSTYYADSVKGRFTISRDNAKNTVYLHMNSLKPEDTAVYYCAAEYAVSWSAFDWNYYYWGQGTQVTVSS | high polyreactivity |
